Results from PMC6920932.

How the values were obtained:
[1] = target: haloalkane dehalogenase DmxA wild type from Marinobacter sp. ELB17 (Marinobacter sp. ELB17); assay: SEC; gel filtration chromatography of purified DmxA wt; conditions not told in the text shown
[2] = target: haloalkane dehalogenase DmxA wild type from Marinobacter sp. ELB17 (Marinobacter sp. ELB17); assay: not stated; DmxA wt in solution; the discussion does not say which experiment gave the share of dimer
[3] = target: haloalkane dehalogenase DmxA wild type from Marinobacter sp. ELB17 (Marinobacter sp. ELB17); assay: native gel or EMSA; native polyacrylamide gel, 4 °C, 115 V, Coomassie stain; reduced (10 mM DTT, degassed, nitrogen) and non-reduced samples compared; LinB (34 kDa, monomer) and DbjA (66 kDa, dimer) as size standards
BrCCCBr = assay: purified protein; settings: 100 mM glycine buffer pH 8.6, 37 °C, cooperativity and partial substrate inhibition
N#CCCCBr = assay: purified protein; settings: 100 mM glycine buffer pH 8.6, 37 °C, substrate inhibition

stoichiometry N [1] | percent of the enzyme present as a dimer [2] [%] | stoichiometry N [3] | Substance | Km (BrCCCBr) [µM] | kcat (BrCCCBr) [s⁻¹] | Km (N#CCCCBr) [µM] | kcat (N#CCCCBr) [s⁻¹]
2 | < 30 | 2 | haloalkane dehalogenase DmxA wild type from Marinobacter sp. ELB17 (enzyme) |  |  |  | 
 |  |  | DmxA (Marinobacter sp. ELB17) | 30 | 2.61 | 670 | 1.89
